Like-named read-outs stand apart in the source and are kept apart here. Bridges are numbered along the chain shown (N, C = ends). [ ]: non-standard residue; d: D form. dPhe(4-F) = N[C@H](Cc1ccc(F)cc1)C(=O)O; Nle = CCCC[C@H](N)C(=O)O
How the values were obtained:
Assay in all cases: cell-based or functional assay
[1] = target: T1, melanocortin receptor-1 (MC1r), native on the human HBL cell line (human, UniProt Q01726 1-317)
[2] = target: T2, melanocortin receptor-1 (MC1r), native on the mouse B16-F10 cell line (mouse, UniProt Q01727 1-315)
T2 sequence (Q01727 whole entry): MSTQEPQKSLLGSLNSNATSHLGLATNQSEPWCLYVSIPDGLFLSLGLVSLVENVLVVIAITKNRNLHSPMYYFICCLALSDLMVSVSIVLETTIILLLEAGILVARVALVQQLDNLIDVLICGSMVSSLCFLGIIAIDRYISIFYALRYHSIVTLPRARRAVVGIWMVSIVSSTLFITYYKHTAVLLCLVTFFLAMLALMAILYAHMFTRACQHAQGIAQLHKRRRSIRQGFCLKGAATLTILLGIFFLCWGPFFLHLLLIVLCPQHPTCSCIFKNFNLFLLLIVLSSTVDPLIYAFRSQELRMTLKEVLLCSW

[3] = target: T3, melanocortin receptor-3 (MC3r), recombinant on HEK-293 cells
T3 sequence (P41968 whole entry): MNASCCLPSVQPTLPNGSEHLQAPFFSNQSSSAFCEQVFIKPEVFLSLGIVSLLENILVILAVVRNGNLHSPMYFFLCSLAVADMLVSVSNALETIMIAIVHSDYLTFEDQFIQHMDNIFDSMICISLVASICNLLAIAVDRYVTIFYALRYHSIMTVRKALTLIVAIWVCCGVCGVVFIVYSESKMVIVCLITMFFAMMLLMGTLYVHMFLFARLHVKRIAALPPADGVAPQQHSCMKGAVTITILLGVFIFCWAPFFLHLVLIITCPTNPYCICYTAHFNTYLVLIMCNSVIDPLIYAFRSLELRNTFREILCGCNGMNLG

[4] = target: T4, melanocortin receptor-4 (MC4r), recombinant on HEK-293 cells (human, UniProt P32245 1-332)
T4 sequence (P32245 whole entry): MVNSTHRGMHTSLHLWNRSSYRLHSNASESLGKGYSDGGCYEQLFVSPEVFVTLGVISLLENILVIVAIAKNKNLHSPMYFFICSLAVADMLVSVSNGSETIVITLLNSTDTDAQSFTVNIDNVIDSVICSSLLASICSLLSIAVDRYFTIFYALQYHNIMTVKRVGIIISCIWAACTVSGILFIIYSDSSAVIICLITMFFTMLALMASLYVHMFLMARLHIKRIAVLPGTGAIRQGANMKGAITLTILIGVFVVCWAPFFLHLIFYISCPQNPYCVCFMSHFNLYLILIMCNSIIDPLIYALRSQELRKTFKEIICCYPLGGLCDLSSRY

[5] = target: melanocortin receptor-5 (MC5r), assay other than CEREP
melanocortin receptor-5 (MC5r), assay other than CEREP, sequence (P33032 whole entry): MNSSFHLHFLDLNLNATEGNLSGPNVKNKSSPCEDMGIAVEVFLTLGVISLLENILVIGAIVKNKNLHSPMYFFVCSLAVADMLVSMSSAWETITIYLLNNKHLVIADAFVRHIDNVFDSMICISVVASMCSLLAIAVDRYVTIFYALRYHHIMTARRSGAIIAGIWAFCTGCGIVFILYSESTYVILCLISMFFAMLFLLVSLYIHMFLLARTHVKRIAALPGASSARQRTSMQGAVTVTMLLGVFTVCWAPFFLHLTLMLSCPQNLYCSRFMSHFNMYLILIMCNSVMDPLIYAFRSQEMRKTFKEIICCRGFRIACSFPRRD

[6] = target: T5, human melanocortin receptor-5 (MC5), on CHO-K1 cells, CEREP assay 1869 (human, UniProt P33032 1-325)
T5 sequence (P33032 whole entry): as above

[7] = target: T1, melanocortin receptor-1 (MC1r), native …; remark: listed apart in the source
[8] = target: T2, melanocortin receptor-1 (MC1r), native …; remark: listed apart in the source
[9] = target: T3, melanocortin receptor-3 (MC3r), …; remark: listed apart in the source
[10] = target: T4, melanocortin receptor-4 (MC4r), …; remark: listed apart in the source
[11] = target: melanocortin receptor-5 (MC5r), assay other than CEREP; remark: listed apart in the source
[12] = target: T5, human melanocortin receptor-5 (MC5), on …; remark: listed apart in the source

T1 sequence (Q01726 whole entry): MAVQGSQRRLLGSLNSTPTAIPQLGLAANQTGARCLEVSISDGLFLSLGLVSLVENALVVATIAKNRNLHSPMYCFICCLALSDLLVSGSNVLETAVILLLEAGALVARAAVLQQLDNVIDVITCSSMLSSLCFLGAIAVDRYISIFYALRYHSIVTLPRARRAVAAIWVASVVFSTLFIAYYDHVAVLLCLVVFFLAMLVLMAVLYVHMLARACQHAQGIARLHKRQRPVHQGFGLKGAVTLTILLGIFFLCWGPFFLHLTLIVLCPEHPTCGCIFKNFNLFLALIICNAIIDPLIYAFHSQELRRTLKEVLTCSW

EC50 (nM), cAMP accumulation [1]: 0.13 nM
Fold Peptide No. 60 More Potent Than α-MSH (ratio of EC50 values) [1]: 69 fold
EC50 (nM), cAMP accumulation [2]: 0.02 nM
Fold Peptide No. 60 More Potent Than α-MSH (ratio of EC50 values) [2]: 11 fold
EC50 (nM), cAMP accumulation [3]: 0.77 nM
Fold Peptide No. 60 More Potent Than α-MSH (ratio of EC50 values) [3]: 3.9 fold
EC50 (nM), cAMP accumulation [4]: 2 nM
Fold Peptide No. 60 More Potent Than α-MSH (ratio of EC50 values) [4]: 1.5 fold
EC50 [5]: 0.15 nM
Fold Peptide No. 60 More Potent Than α-MSH (ratio of EC50 values) [5]: 686 fold
EC50 (nM), cAMP production, HTRF, CEREP [6]: 0.39 nM
Fold Peptide No. 60 More Potent Than α-MSH (ratio of EC50 values, CEREP) [6]: 930 fold
EC50 (nM), cAMP accumulation [7]: 0.13 nM
Fold Peptide No. 60 More Potent Than Bremelanotide (ratio of EC50 values) [7]: 0.78 fold
EC50 (nM), cAMP accumulation [8]: 0.02 nM
Fold Peptide No. 60 More Potent Than Bremelanotide (ratio of EC50 values) [8]: 5 fold
EC50 (nM), cAMP accumulation [9]: 0.77 nM
Fold Peptide No. 60 More Potent Than Bremelanotide (ratio of EC50 values) [9]: 4 fold
EC50 (nM), cAMP accumulation [10]: 2 nM
Fold Peptide No. 60 More Potent Than Bremelanotide (ratio of EC50 values) [10]: 0.5 fold
EC50 [11]: 0.15 nM
Fold Peptide No. 60 More Potent Than Bremelanotide (ratio of EC50 values) [11]: 22500 fold
EC50 (nM), cAMP production, HTRF, CEREP [12]: 0.39 nM
Fold Peptide No. 60 More Potent Than Bremelanotide (ratio of EC50 values, CEREP) [12]: > 25000 fold
B1: Peptide No. 60, Ac-Nle-cyclo(Glu-His-D-Phe(4-F)-Arg-Trp-NH-(CH2)4-NH) (peptide)
peptide: Ac-[Nle]EH[dPhe(4-F)]RW
modifications: bridge 2-C; not fully specified (C-terminus, bridges); printed as Ac-Nle-cyclo(Glu-His-D-Phe(4-F)-Arg-Trp-NH-(CH2)4-NH)
